Experiment [1] deals with T1, cynomolgous IL12Rβ1 naturally expressed on cells (HSC-F cells, cyno T-cells, cyno blood cells) (cynomolgus monkey, UniProt P42701 24-662 (human entry)).
T1 construct: also called cyno IL12Rβ1
Briefly: flow cytometry, cell binding on HSC-F (cyno natural expression). Here is the method:
(§1) Cell binding of selected antibodies is tested using various IL-12Rβ1 expressing cell lines, e.g. Kit 225 or HSC—F, or human and cyno T cell blasts, employing flow cytometry. After incubation with serial antibody dilutions, staining of the cells is quantified by flow cytometric analysis.

Experiment [2] concerns the target T2, human IL12Rbeta1 polypeptide (soluble receptor/antigen, construct not stated) (human, UniProt P42701 24-545).
T2 construct: the whole entry is named; also called IL12Rβ1; the receptor
Briefly: in vitro competitive binding assay (Bioveris/MSD); inhibition of receptor binding to coated IL23; IL23 competitive binding (second number of 8/18). As for the experimental part:
(§2) During the assay procedure, a fixed amount (predetermined to result in near maximum signal) of the receptor was incubated with increasing concentrations (1:100 to 100:1 molar ratio) of purified Fab/IgG in solution. Subsequently, the samples were transferred to a ligand coated and blocked MSD multi-titer plate. The free receptor binds to the ligand and was detected via an appropriate ruthenium complex-labeled antibody and quantified. The concentration of bound receptor as an inverse function of Fab/IgG concentration used for incubation was fitted using the respective model. The inflection point of the fitted curve represents the IC₅₀ value.

Experiment [3] addresses T3, human IL12Rβ1 naturally expressed on cells (Kit225 cells, human T-cells, human blood cells) (human, UniProt P42701 24-662).
T3 construct: also called IL12 receptor beta 1
Briefly: flow cytometry, cell binding on Kit225 (human natural expression). Here is the method: as §1

Experiment [4] addresses T3, human IL12Rβ1 naturally expressed on …. Briefly: flow cytometry, cell binding on human T-cells (human natural expression). As for the experimental part:
as §1
For orientation: A flow cytometer gives signals particle by particle.

The target of experiment [5] is T4, cynomolgous monkey IL12Rβ1 (recombinant, construct not stated) (cynomolgus monkey, UniProt P42701 24-545 (human entry), limits assumed).
T4 construct: The SPR method describes capture of an IL12Rβ1-Fc fusion, but the cyno construct is not described; the whole entry is named; also called cyno IL12Rβ1; cynomolgus IL12Rbeta1
Briefly: SPR (Biacore), cyno IL12Rβ1.

Experiment [6] has as its target T2, human IL12Rbeta1 polypeptide (soluble …). Briefly: in vitro competitive binding assay (Bioveris/MSD); inhibition of receptor binding to coated IL12; IL12 competitive binding (first number of 8/18). As for the experimental part: as §2
For another experiment, the target named is T5, human IL12Rβ1-Fc-Fusion (human, UniProt P42701 24-545).
T5 construct: Captured on an anti-human-Fc chip for SPR; not shown: Fc part of the fusion
Briefly: SPR (Biacore), IL12Rβ1-Fc fusion captured on anti-human-Fc CM5 chip. The text has this: For determination of KD values, surface plasmon resonance technology was applied using the Biacore™ technology. Anti-human-Fc-capture CM5 chip (Biacore, Sweden) was used for capturing IL12Rβ1-Fc-Fusion followed by ligand (Fab) injection at different concentrations.
(Surface plasmon resonance follows binding to a sensor surface in real time, without labels.)

In experiment [7] the target is T3, human IL12Rβ1 naturally expressed on …. Briefly: cell-based or functional assay.
Experiment [8] addresses T1, cynomolgous IL12Rβ1 naturally expressed …. Briefly: cell-based or functional assay.
The target is the same in experiment [9]. Briefly: flow cytometry, cell binding on cyno T-cells (cyno natural expression). Here is the method: as §1
The target of the next experiment is T6, mouse IL12Rbeta1 (mouse, UniProt Q60837 20-565, limits assumed).
T6 construct: also called murine IL12Rbeta1; rodent IL12Rbeta1 proteins
T6 sequence (looked up): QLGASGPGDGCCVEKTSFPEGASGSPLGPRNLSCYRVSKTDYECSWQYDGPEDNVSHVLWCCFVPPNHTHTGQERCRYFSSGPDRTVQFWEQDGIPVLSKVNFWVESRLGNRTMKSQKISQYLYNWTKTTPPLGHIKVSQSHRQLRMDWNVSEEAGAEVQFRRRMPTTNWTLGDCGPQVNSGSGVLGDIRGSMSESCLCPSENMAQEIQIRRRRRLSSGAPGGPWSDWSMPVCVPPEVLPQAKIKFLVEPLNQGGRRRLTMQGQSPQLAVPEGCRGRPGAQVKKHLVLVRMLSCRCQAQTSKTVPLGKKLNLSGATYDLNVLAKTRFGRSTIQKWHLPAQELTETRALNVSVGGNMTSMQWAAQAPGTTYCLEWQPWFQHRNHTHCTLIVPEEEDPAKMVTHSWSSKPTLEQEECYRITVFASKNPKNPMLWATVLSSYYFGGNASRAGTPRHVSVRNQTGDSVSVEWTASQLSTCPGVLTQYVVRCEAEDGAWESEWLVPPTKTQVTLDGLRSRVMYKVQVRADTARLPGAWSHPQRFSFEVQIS
Briefly: not described.

For experiment [10], the target named is T2, human IL12Rbeta1 polypeptide (soluble …). Briefly: in vitro competitive binding assay (Bioveris/MSD); inhibition of receptor binding to coated IL12. Here is the method: as §2
For experiment [11] the target is unchanged. Briefly: in vitro competitive binding assay (Bioveris/MSD); inhibition of receptor binding to coated IL23. Here is the method:
as §2

B1: mAb1 (MOR11873 with IgG1 LALA Fc variant) (antibody, V domains shown)
VH: QVQLVESGGGVVQPGRSLRLSCAASGFTFTSYGMSWVRQAPGKGLEWVAGISYSGSDTEYADSVKGRFTISRDNSKNTLYLQMNSLRAEDTAVYYCARSPDYIIDYGFDYWGRGTLVTVSS
VL: AIQMTQSPSSLSASVGDRVTITCRASQGISSDLAWYQQKPGKAPKLLIYDASSLQSGVPSRFSGSGSGTDFTLTISSLQPEDFATYYCQQYWIYPFTFGQGTKVEIKR
notes: Human IgG1 L234A L235A (LALA), expressed in HKB11 cells
For B1, the EC50 (as a rule, the concentration that produces a half-maximal response) in experiment [1] came out at 0.023 nM; in [3], 0.006 nM; in experiment [4] it was 0.033 nM; in experiment [9], 0.055 nM. For the same molecule, the figures for the IC50 in experiment [2] and in experiment [6] were 0.018 nM and 0.008 nM, respectively. For the same molecule, the Kd (usually the equilibrium constant for the complex coming apart) in [5] was determined as 0.1 nM; with human IL12Rβ1-Fc-Fusion it was 0.04 nM. Further, the “IL12/IL18 dependent IFNγ production In human blood cells (IC50, pM)” value in experiment [7] came out at 28 pM. In addition, the “IL12/IL18 dependent IFNγ production In cyno blood cells (IC50, pM)” value in experiment [8] stood at 239 pM.

B2: MOR11873 (antibody, V domains shown)
VH: QVQLVESGGGVVQPGRSLRLSCAASGFTFTSYGMSWVRQAPGKGLEWVAGISYSGSDTEYADSVKGRFTISRDNSKNTLYLQMNSLRAEDTAVYYCARSPDYIIDYGFDYWGRGTLVTVSS
VL: AIQMTQSPSSLSASVGDRVTITCRASQGISSDLAWYQQKPGKAPKLLIYDASSLQSGVPSRFSGSGSGTDFTLTISSLQPEDFATYYCQQYWIYPFTFGQGTKVEIKR
notes: Named by its variable regions only; H/DxMS used a representative antibody of the group; also called group mAb1, mAb2, mAb3, mAb13 (MOR11873)
Regarding B2, the binding result in the experiment with mouse IL12Rbeta1 is on record as “no binding”.

B3: mAb4 (MOR11878 with IgG1 LALA Fc variant) (antibody, V domains shown)
VH: QVQLVESGGGVVQPGRSLRLSCAASGFTFTSYGMSWVRQAPGKGLEWVAGISYDASDTEYADSVKGRFTISRDNSKNTLYLQMNSLRAEDTAVYYCARSPDYIIDYGFDYWGRGTLVTVSS
VL: AIQMTQSPSSLSASVGDRVTITCRASQGISSDLAWYQQKPGKAPKLLIYDASSLQSGVPSRFSGSGSGTDFTLTISSLQPEDFATYYCQQYWWYPFTFGQGTKVEIKR
notes: as for B1
For the molecule B3, the 50% inhibitory concentration (IC50) (as a rule, the concentration that gives 50% inhibition) in experiment [10] was found to be 0.008 nM; in experiment [11], 0.013 nM. The EC50 is 0.013 nM in [1], 0.005 nM in [3], 0.038 nM in experiment [4] and 0.041 nM in experiment [9]. The Kd in experiment [5] worked out at 0.1 nM; with human IL12Rβ1-Fc-Fusion, 0.02 nM. In addition, the “IL12/IL18 dependent IFNγ production In human blood cells (IC50, pM)” value in [7] amounted to 77 pM. The “IL12/IL18 dependent IFNγ production In cyno blood cells (IC50, pM)” value in experiment [8] came out at 216 pM.

B4: MOR11878 (antibody, V domains shown)
VH: QVQLVESGGGVVQPGRSLRLSCAASGFTFTSYGMSWVRQAPGKGLEWVAGISYDASDTEYADSVKGRFTISRDNSKNTLYLQMNSLRAEDTAVYYCARSPDYIIDYGFDYWGRGTLVTVSS
VL: AIQMTQSPSSLSASVGDRVTITCRASQGISSDLAWYQQKPGKAPKLLIYDASSLQSGVPSRFSGSGSGTDFTLTISSLQPEDFATYYCQQYWWYPFTFGQGTKVEIKR
notes: Named by its variable regions only; H/DxMS used a representative antibody of the group; also called group mAb4, mAb5, mAb6, mAb14 (MOR11878)
B4: in the experiment with mouse IL12Rbeta1, the binding result is given as “no binding”.

B5: mAb7 (MOR11879 with IgG1 LALA Fc variant) (antibody, V domains shown)
VH: QVQLVQSGAEVKKPGASVKVSCKASGYTFTGYYMHWVRQAPGQGLEWMGMIGPQHGEAIYAQKFQGRVTMTRDTSISTAYMELSRLRSEDTAVYYCARESTDSDESPFDYWGQGTLVTVSS
VL: DIELTQPPSVSVSPGQTASITCSGDNIRSYYVSWYQQKPGQAPVLVIYDDSDRPSGIPERFSGSNSGNTATLTISGTQAEDEADYYCQSYGSHSNFVVFGGGTKLTVLG
notes: as for B1
Take B5: the values for the IC50 in experiment [10] and in [11] were 0.008 nM and 0.02 nM, respectively. Also, the EC50 in experiment [1] was found to be 0.023 nM; in experiment [3], 0.01 nM; in [4], 0.015 nM; in experiment [9], 0.036 nM. Besides, the results for the equilibrium dissociation constant (Kd) (in [5]; with human IL12Rβ1-Fc-Fusion) were 0.6 nM and 0.04 nM, respectively. In [7], the “IL12/IL18 dependent IFNγ production In human blood cells (IC50, pM)” value amounted to 24 pM. For the same molecule, the “IL12/IL18 dependent IFNγ production In cyno blood cells (IC50, pM)” value in experiment [8] was determined as 284 pM.

B6: MOR11880 (antibody, V domains shown)
VH: QVQLVQSGAEVKKPGASVKVSCKASGYTFTGYYMHWVRQAPGQGLEWMGMIGPQHGEAIYAQKFQGRVTMTRDTSISTAYMELSRLRSDDTAVYYCARESTDSDESPFDYWGQGTLVTVSS
VL: SYELTQPLSVSVALGQTARITCSGDNIRSYYVSWYQQKPGQAPVLVIYDDSDRPSGIPERFSGSNSGNTATLTISRAQAGDEADYYCQSYGSHSNFVVFGGGTKLTVLG
notes: Named by its variable regions only; H/DxMS used a representative antibody of the group; also called group mAb10, mAb11, mAb12, mAb16 (MOR11880)
B6: the binding result with mouse IL12Rbeta1 is “no binding”.

B7: mAb10 (MOR11880 with IgG1 LALA Fc variant) (antibody, V domains shown)
VH: QVQLVQSGAEVKKPGASVKVSCKASGYTFTGYYMHWVRQAPGQGLEWMGMIGPQHGEAIYAQKFQGRVTMTRDTSISTAYMELSRLRSDDTAVYYCARESTDSDESPFDYWGQGTLVTVSS
VL: SYELTQPLSVSVALGQTARITCSGDNIRSYYVSWYQQKPGQAPVLVIYDDSDRPSGIPERFSGSNSGNTATLTISRAQAGDEADYYCQSYGSHSNFVVFGGGTKLTVLG
notes: as for B1
As for B7, the IC50 turned out to be 0.008 nM in experiment [10] and 0.02 nM in [11]. Further, the EC50 in experiment [3] turned out to be 0.011 nM; in experiment [4], 0.016 nM; in [9], 0.028 nM. Also, the Kd was determined as 0.6 nM in [5] and 0.04 nM in the experiment with human IL12Rβ1-Fc-Fusion. In experiment [7], the “IL12/IL18 dependent IFNγ production In human blood cells (IC50, pM)” value was found to be 42 pM. The “IL12/IL18 dependent IFNγ production In cyno blood cells (IC50, pM)” value in experiment [8] turned out to be 1180 pM.

For the origin of these results see patent publication US20120082681A1 (Novartis, published 2012).
